Molecular target: hACE2 peptidase domain fused to a human Fc from IgG (human)
Experiment: BLI

hACE2 peptidase domain fused to a human Fc from IgG (human), sequence (Q9BYF1 19-615): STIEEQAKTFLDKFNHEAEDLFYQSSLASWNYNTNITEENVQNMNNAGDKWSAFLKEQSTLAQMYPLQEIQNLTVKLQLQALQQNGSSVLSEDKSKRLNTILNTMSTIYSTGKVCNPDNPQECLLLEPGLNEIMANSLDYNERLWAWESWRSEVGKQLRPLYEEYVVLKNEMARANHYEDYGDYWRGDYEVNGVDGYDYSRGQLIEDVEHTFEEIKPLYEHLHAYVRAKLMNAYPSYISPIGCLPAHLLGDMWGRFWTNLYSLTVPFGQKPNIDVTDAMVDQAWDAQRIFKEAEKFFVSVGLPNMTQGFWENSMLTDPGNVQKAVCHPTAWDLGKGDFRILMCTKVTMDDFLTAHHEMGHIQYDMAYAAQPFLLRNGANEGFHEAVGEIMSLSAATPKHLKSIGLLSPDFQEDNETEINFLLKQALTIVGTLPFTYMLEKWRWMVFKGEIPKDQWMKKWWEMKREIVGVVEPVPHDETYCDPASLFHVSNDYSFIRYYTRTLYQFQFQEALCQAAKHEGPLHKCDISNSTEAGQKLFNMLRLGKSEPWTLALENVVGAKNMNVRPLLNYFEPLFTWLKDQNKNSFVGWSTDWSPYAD

B1: VHH B09 (VHH)
VHH: QVQLVESGGGLVQAGGSLRLSCATSRSTFSSNTIGWYRQAPGKQRELVASISTSGNTYYADSVKGRFAISRDNAENTVYLQMNSLKPEDTAVYYCNTPSRRISNFWGQGTQVTVSS
  koff: 0.000106 s⁻¹

B2: VHH B07 (VHH)
VHH: EVQLQASGGGLVQAGGSLRLSCAASRSTFSTNTIGWYRQAPGKQRELVASISTSGNTYYPDSVKGRFAISRDNAENTVYLQMNSLKPEDTAVYYCNTPSRRISNFWGQGTQVTVSS
  koff: 0.0001 s⁻¹

B3: VHH B10 (VHH)
VHH: QVQLVESGGGLVQAGDSLRLSCAASGRTFSSYAMGWFRQALGKEREFVAVISGSGTSTYYTDSVKGRFTISRDNAKNTVYLQMNSLKPEDTAVYYCARAKGFSTIYNQDEGRYDYWGQGTQVTVSS
  koff: 0.000411 s⁻¹

From article PMC12638815 (2025)
